In US20030207391A1 (published 2003):

Target: T1, soluble FLT-1 (sFLT-1) (Homo sapiens, UniProt P17948-2 27-687, limits assumed)
T1 construct: the whole FLT-1 entry is named
Test: BIAcore; 50 nM sFLT-1 pre-incubated overnight with 50 µg/ml construct, passed over immobilised mAb 2B2
Method: Binding of Domain 4 on sFLT-1 is determined using Biomolecular Interaction Analysis (Biacore). (Fisher R. J. and Fivash, M. (1994) Curr. Opin. Biotech. 5, 389-395).
A monoclonal antibody (2B2) specific to Domains 1 to 3 of sFLT-1, but not Domain 4, was immobilized on the sensor chip at a concentration of 30 μg/ml in 10 mM NaAc, pH 5. 50 μg/ml of the four Domain 4 constructs in 20 mM Tris-HCl, pH 7.4 were individually pre-incubated overnight at 4° C. with 50 nM sFLT-1 in HEPES buffer (O.O1M Hepes,pH 7.4, 0.15M NaCl, 3 mM EDTA, 0.005% polysorbate 20 (v/v)). Thereafter the pre-incubated suspensions were passed across the immobilized monoclonal antibody and binding monitored by mass sensitive detection, measured in response units (RU). […] A further control was also run whereby the four Domain 4 constructs, which have not been pre-incubated with sFLT-1, were passed over the immobilized monoclonal antibody. After each run the sensor chip was regenerated in 10 mM Glycine pH 1.75 buffer ready for the next experiment.

T1 sequence (P17948 other isoform, or with tags, fused parts or gaps limits assumed): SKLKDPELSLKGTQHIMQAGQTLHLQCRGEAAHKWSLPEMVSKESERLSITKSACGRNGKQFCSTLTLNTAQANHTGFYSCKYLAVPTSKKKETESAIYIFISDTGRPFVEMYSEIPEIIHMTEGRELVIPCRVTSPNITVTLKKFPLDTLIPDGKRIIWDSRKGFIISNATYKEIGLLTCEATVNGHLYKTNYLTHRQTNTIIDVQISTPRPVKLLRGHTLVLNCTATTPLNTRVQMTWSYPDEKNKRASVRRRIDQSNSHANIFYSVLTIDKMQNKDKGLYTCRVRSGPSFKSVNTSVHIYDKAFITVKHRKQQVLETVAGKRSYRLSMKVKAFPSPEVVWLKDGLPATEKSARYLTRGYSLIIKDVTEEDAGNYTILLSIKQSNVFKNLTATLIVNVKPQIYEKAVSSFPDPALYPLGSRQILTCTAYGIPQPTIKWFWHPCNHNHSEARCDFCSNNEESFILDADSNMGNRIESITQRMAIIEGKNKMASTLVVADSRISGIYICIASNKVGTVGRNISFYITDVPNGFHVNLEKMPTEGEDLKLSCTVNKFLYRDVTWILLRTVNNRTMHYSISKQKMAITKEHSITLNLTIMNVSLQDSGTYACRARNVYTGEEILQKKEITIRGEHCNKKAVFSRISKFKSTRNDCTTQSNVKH

Binder	% inhibition of sFLT-1 [%]
FLT-1 Domain 4 Construct 2 (residues 330-440), His-tagged (receptor, not shown: histidine tag from the E. coli expression vector) DKAFITVKHRKQQVLETVAGKRSYRLSMKVKAFPSPEVVWLKDGLPATEKSARYLTRGYSLIIKDVTEEDAGNYTILLSIKQSNVFKNLTATLIVNVKPQIYEKAVSSFPD	73.3
FLT-1 Domain 4 Construct 0 (residues 338-440), His-tagged (receptor, probably a printing error; also called sFLT-1 Dom; 4 (construct 0); His-Tagged Domain 4 (Construct 0); not shown: histidine tag from the E. coli expression vector) HRKQQVLETVAGKRSYRLSMKVKAFPSPEVVWLKDGLPATEKSARYLTRGYSLIIKDVTEEDAGNYTILLSIKQSNVFKNLTATLIVNVKPQIYEKAVSSFPD	5.85
FLT-1 Domain 4 Construct 1 (residues 330-429), His-tagged (receptor, not shown: histidine tag from the E. coli expression vector) DKAFITVKHRKQQVLETVAGKRSYRLSMKVKAFPSPEVVWLKDGLPATEKSARYLTRGYSLIIKDVTEEDAGNYTILLSIKQSNVFKNLTATLIVNVKPQ	64.7
